Article PMC11220139, “Biophysical and structural studies of fibulin-2” (Scientific Reports, 2024)

B1: mouse fibulin-2 construct S427-G545, three anaphylatoxin-like modules (wild-type) (domain or fragment, UniProt P37889 427-545, looked up)
chain: STKDLIETCCAAGQQWAIDNDECQEIPENGAQSDICRIAQRQCCISYLKEKSCVAGVMGAKEGETCGAEDNDTCGVSLYKQCCDCCGLGLRVRAEGQSCESNPNLGYPCNHVMLSCCEG
notes: fibulin-2, mouse, residues S427-G545 (three anaphylatoxin-like modules); numbering is according to the full-length protein; Homodimer linked by an inter-molecular disulfide bond via C500; 8 intra-molecular disulfide bonds in each chain; also called MH6M-S427-G545; pAS79 construct; source: E. coli BL21 (DE3) with the CyDisCo plasmid pMJS205 (Erv1p and PDI), purified (nickel IMAC, SEC); not shown: …

Assays:
[1] = target: mouse fibulin-2 construct S427-G545, three anaphylatoxin-like modules (mutant C500L) (mouse) (UniProt P37889); assay: SEC-MALS; 50 µL of ~2 mg/mL SEC purified protein on Superdex 200 Increase 10/300, 20 mM Tris-HCl pH 8, 150 mM NaCl, 0.5 mL/min
[2] = target: the molecule itself; assay: as above

Molecule | stoichiometry N [1] | stoichiometry N [2]
mouse fibulin-2 construct S427-G545, three anaphylatoxin-like modules (mutant C500L) (from UniProt P37889 427-545) (domain or fragment) | 2 | 
B1 |  | 2
